Source: paper doi:10.1101/2024.05.17.594718 (bioRxiv, 2024)

Molecular target: LysP-GFP (Pseudomonas aeruginosa PAO1 LysP fused to GFP-His8) (Pseudomonas aeruginosa strain PAO1, UniProt Q9HVG3)
Experiment: GFP thermal shift

B1: nanobody Nb5755 (VHH)
VHH: QVQLQESGGGLVQGGSLRLSCAASGRTFSIYGMAWVRQASGKEREFVAAMPRGGGTTNYADSVKGRFSISRDNAKNTVDLQMNSLKPEDTAVYYCVADRGFTLRLGIQHDYWGQGTQVTVSS
  increase in melting temperature: 20 °C
